Test results as given in patent US20260102461A1 (AIKIUM, published 2026).
Positions count from the first letter of the chain named. Read-outs that look alike come from different tables or passages of the source.

What was measured:
[1] = biological target: 25 amino acid epitope of CLIP (CD74); assay: BLI (Octet), biotinylated peptide on streptavidin tip, scaffold in solution
[2] = biological target: T1, CD74 disordered region peptide (CLIP), PPKPVSKMRMATPLLMQALPMGALP (biotin (position not given)); assay: ELISA, scaffold coated on the plate, biotinylated peptide titrated, streptavidin-HRP fluorescence
T1 peptide: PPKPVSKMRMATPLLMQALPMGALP
Description: (§1) Binder proteins were coated on the surface of a high binding capacity 96 well plate by incubating 100 μL of protein at […] in a coating solution (10 mM Tris pH 8.8, 50 mM NaCl), overnight at 4 C. The next morning, the coating solution was aspirated out and wells were washed once with 300 μL ELISA wash buffer (lx PBS, 0.05% Tween-20) and solution was aspirated out. The wells were blocked with 200 μL of a blocking buffer (1×PBS, 0.05% Tween-20, 3% BSA) at room temperature for 1 hour. After one hour, the blocking solution was aspirated out and 100 μL of biotinylated polypeptide in a binding buffer (1×PBS, 0.05% Tween-20, 0.5% BSA) at various concentrations was added to the appropriate well and incubated for 20 minutes. Peptide solution was aspirated out after 20 minutes and wells were washed 5 times with 300 μL of ELISA wash buffer. To detect the biotinylated peptide, 100 μL of streptavidin-HRP (50 ng/mL) was added to each well and incubated for 1 hour. The wells were subsequently washed 5 times with 300 μL of ELISA wash buffer. 100 μL of QuantaBlu Fluorogenic Peroxidase substrate solution was added to each well, incubated for 30 minutes and reaction stopped by adding 100 μL of stop solution. Fluorescent signal from each well was measured using a Biotek Cytation5 plate reader by exciting the fluorophore at […] and measuring emission at 420 nm. Fluorescent signals were plotted as a function of polypeptide concentration.

[3] = biological target: T2, KAAG1 disordered region peptide, PGAAAAHLPRWPPPQLAASRREA (biotin (position not given)); assay: as above
T2 peptide: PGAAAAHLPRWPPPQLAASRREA
Description: as §1

[4] = biological target: T3, CYSLTR2 Epitope SISVSEMEPNGTFSNNNSRNC (N-terminally biotinylated); assay: as above
T3 peptide: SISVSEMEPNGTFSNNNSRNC

[5] = biological target: T4, Urotensin-2 receptor (UR-II-R) disordered region, MALTPESPSSFPGLAATGSSVPEPPGGPNATLNSSWASPTEPSSLEDLVATGTI (biotin (position not given)); assay: modified sandwich ELISA (scaffold coated, biotinylated peptide, streptavidin-HRP fluorescence)
T4 construct: also called Urotensin II R; GPCR2 (Urotensin II)
T4 peptide: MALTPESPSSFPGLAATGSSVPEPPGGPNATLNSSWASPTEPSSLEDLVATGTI

[6] = biological target: T5, CYSLTR2 N-terminal disordered region, MERKFMSLQPSISVSEMEPNGTFSNNNSRNCTIENFKREFFP (biotin (position not given)); assay: ELISA fluorescence at 10,000 nM peptide divided by the no-scaffold control; the control bar is marked 1x
T5 construct: also called CysLT2; CysLT2r
T5 peptide: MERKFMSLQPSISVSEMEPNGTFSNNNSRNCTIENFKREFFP
Description: as §1

MERKFMSLQPSISVSEMEPNG = biological target: T6, MERKFMSLQPSISVSEMEPNG (N-terminal biotin); assay: ELISA, scaffold coated on the plate, biotinylated peptide titrated, streptavidin-HRP fluorescence
T6 construct: First of three overlapping 21-mers of the CYSLTR2 N-terminal disordered region
T6 peptide: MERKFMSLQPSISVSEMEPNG
Description: as §1

[7] = biological target: T3, CYSLTR2 Epitope SISVSEMEPNGTFSNNNSRNC; assay: as above
Description: as §1

[8] = biological target: T5, CYSLTR2 N-terminal disordered region, …; assay: modified sandwich ELISA (FIGS. 30A and 30B)
Description: as §1, with “Fluorescent signals were plotted as a function of polypeptide concentration.” left out

[9] = biological target: T4, Urotensin-2 receptor (UR-II-R) …; assay: ELISA, scaffold coated on the plate, biotinylated peptide titrated, streptavidin-HRP fluorescence
Description: as §1, with “Fluorescent signals were plotted as a function of polypeptide concentration.” left out

[10] = biological target: T2, KAAG1 disordered region peptide, …; assay: modified sandwich ELISA, fluorescence grade (key: 50000 < x < 100000, Weak binding)
[11] = biological target: T1, CD74 disordered region peptide (CLIP), …; assay: modified sandwich ELISA, fluorescence grade (key: >400000, Strong binding)
[12] = biological target: T5, CYSLTR2 N-terminal disordered region, …; assay: modified sandwich ELISA, fluorescence grade (key: 50000 < x < 100000, Weak binding)
[13] = biological target: T2, KAAG1 disordered region peptide, …; assay: modified sandwich ELISA (scaffold coated, biotinylated peptide, streptavidin-HRP fluorescence)
[14] = biological target: T5, CYSLTR2 N-terminal disordered region, …; assay: as above
[15] = biological target: T2, KAAG1 disordered region peptide, …; assay: as above

B1: S005 (designed binder)
chain: MIKEEHVIIQAEFYLNPDQSGEFMFDFDGDEIFHVDMAKKETVWRLEEFGRFASFEAQGALANIAVDKANLEIMTKRSNYTPMGDTRPRFLWQLKFECHFFNGTERVRLLERCIYNQEESVRFDSDVGEYRAVTELGRPDAEYWNSQKDLLEQRRAAVDTYCRHNYGVGESFTVQGGSHHHHHHLE
notes: Engineered scaffold derived from MHC II; derived from S007 by removing the immunoglobulin unit; also called v1.1; scaffold v1.1
- Kd [1]: 840 nM
- EC50 (read off the curve) [2]: ~300 nM
- binding result [3]: binds
- binding result [4]: binds
- binding result [5]: no binding (tested: <5000 (fluorescence signal, key))
- Relative Binding [6]: 18.5 x
- Relative Binding (Fold Change) [6]: 18.5 x

B2: S090 (designed binder)
chain: IKEEHSIRQNEMYLNPDQSGLFEFHLDGQPIFRVDMQKKRTKWQLEEFGRFASFEAQGALANIAVDKANLEIMTKRSNQSEAGSHSWQLIFVCEFHEGTESVRLSERCYYNQELSVSFNSDVGEYRAVTELGRPDAEYWNSQKDLLEQRRAAVDTYCRHNYGVGESFTVQRRGGSHHHHHHLE
notes: Rationally designed from v1.1 (S005); By SEC it is a mixture of monomers, dimers and multimers, at least 50% monomer; also called v1.2; scaffold v1.2
- EC50 (read off the curve) [2]: ~500 nM
- binding result (MERKFMSLQPSISVSEMEPNG): no binding (tested: 10000 nM)
- binding result [7]: binds
- binding result [3]: binds
- fold higher affinity compared to a non-specific protein binder [8]: > 65 fold
- binding result [9]: binds
- Relative Binding [6]: 37.2 x
- Relative Binding (Fold Change) [6]: 37.2 x

B3: S055 (designed binder)
chain: GSHSMRYNYTSVSRPGRGEPRFLSEGHVDDTQFVRFDSDAASPREEPRAPWIEQEGPEYWDRNTQIYKAQAQTDRESLRNLRGYYNQSEAGSHTLQSIYGCDVGPDGRLLRGHDQYYYDGKDYISLNEDLRSWTAADTAAQITQRKWEAAREAEQRRAYLEGECVEWLRRYLENGKDKLERADGGSHHHHHHLE
- fluorescent signal [10]: 50000 to 100000 fluorescentsignal
- fluorescent signal [11]: > 400000 fluorescentsignal

B4: S056 (designed binder)
chain: B3 chain with D30G, T31Q, Q32P, S92L, T94S, Q96N, G100V, Q115H, K121E, D122L
- fluorescent signal [10]: 50000 to 100000 fluorescentsignal
- fluorescent signal [11]: > 400000 fluorescentsignal

B5: S078 (designed binder)
chain: GDTRPRFLWQLKFECHFFNGTERVRLLERCIYNQEESVRFDSDVGEYRAVTELGRPDAEYWNSQKDLLEQRRAAVDTYCRHNYGVGESFTVQRRSGGGIKEEHVIIQAEFYLNPDQSGEFMFDFDGDEIFHVDMAKKETVWRLEEFGRFASFEAQGALANIAVDKANLEIMTKRSNYTGGSHHHHHHLE
- fluorescent signal [12]: 50000 to 100000 fluorescentsignal
- fluorescent signal [11]: > 400000 fluorescentsignal
- binding result [13]: no binding (tested: <5000 (fluorescence signal, key))

B6: S084 (designed binder)
chain: IKEEHVIQQSEYYTNPDQSGEFQFDFDGDEIFHVDMAKKETVWRLEEFGRFASFEAQGALANIAVDKANLEIMTKRSNYTGDTRPRFNWQLKFECHFFNGTERVRLLERCNYNQEESVRFDSDVGEYRAVTELGRPDAEYWNSQKDLLEQRRAAVDTYCRHNYGVGESFTVQRRGGSHHHHHHLE
- fluorescent signal [11]: > 400000 fluorescentsignal
- binding result [14]: no binding (tested: <5000 (fluorescence signal, key))
- binding result [13]: no binding (tested: <5000 (fluorescence signal, key))

B7: S098 (designed binder)
chain: PENYLFQGRQECNGTQFLERYIYNREEFVRFDEFRAVGRPDEEYWNSQKDILEEERAVPDRMCRHNYELGGPMTLQRRVQPRVNIKADHVSTYAAFVQRPFMFEFDEDEMFYVDLHLEEFGQAFSFEAQGGLANIAILNNNLNTRSNHTQATNDPPHHHHHHLE
- binding result [5]: no binding (tested: <5000 (fluorescence signal, key))
- binding result [15]: no binding (tested: <5000 (fluorescence signal, key))
